Tested on: Escherichia coli TOP10
Assay: shrunken log2 fold change of peptide-encoding DNA abundance (4.5 h post-induction vs induction); higher = less antimicrobial activity (less host growth inhibition)
Settings: time post-induction: 4.5 h; library: site-saturation at positions 5, 18, 19, 20
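Note: peptides expressed intracellularly from a pBAD plasmid library in pooled LB shake-flask culture, induced with 0.3% L-arabinose, DNA abundance read by NGS, three biological replicates, DESeq2 with apeglm shrinkage.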

Sequence	shrunken log2 fold change
RRIRDRPPRLPRPRPRPIPSPRP	0.0554
RRIRTRPPRLPRPRPRPYNCPRP	-0.168
RRIRDRPPRLPRPRPRPQVQPRP	-0.0379
RRIRIRPPRLPRPRPRPEYVPRP	-0.196
RRIRKRPPRLPRPRPRPWTDPRP	-0.00992
RRIRMRPPRLPRPRPRPFEQPRP	0.0263
RRIRLRPPRLPRPRPRPYQEPRP	-0.46
RRIRARPPRLPRPRPRPRPLPRP	0.707
RRIRKRPPRLPRPRPRPIMMPRP	-0.0529
RRIRRRPPRLPRPRPRPKANPRP	0.264
RRIRERPPRLPRPRPRPEKEPRP	0.0662
RRIRRRPPRLPRPRPRPPWPPRP	0.667
RRIRGRPPRLPRPRPRPDRHPRP	0.191
RRIRFRPPRLPRPRPRPWEEPRP	-0.159
RRIRDRPPRLPRPRPRPMMTPRP	0.395
RRIRLRPPRLPRPRPRPSSSPRP	0.172
RRIRARPPRLPRPRPRPASFPRP	0.387
RRIRMRPPRLPRPRPRPPHPPRP	0.873
RRIRMRPPRLPRPRPRPHTKPRP	0.137
RRIRRRPPRLPRPRPRPTFLPRP	0.115
RRIRWRPPRLPRPRPRPELSPRP	0.101
RRIRDRPPRLPRPRPRPQLWPRP	0.92
RRIRMRPPRLPRPRPRPLYNPRP	-0.335
RRIRIRPPRLPRPRPRPVHMPRP	-0.315
RRIRCRPPRLPRPRPRPGIPPRP	-0.126

Sequence	shrunken log2 fold change
RRIRIRPPRLPRPRPRPTTTPRP	-0.00987
RRIRIRPPRLPRPRPRPKLGPRP	-0.217
RRIRFRPPRLPRPRPRPPQHPRP	0.108
RRIRFRPPRLPRPRPRPVKHPRP	-0.222
RRIRYRPPRLPRPRPRPVRWPRP	0.164
RRIRHRPPRLPRPRPRPNKGPRP	-0.174
RRIRTRPPRLPRPRPRPWYPPRP	-0.255
RRIRQRPPRLPRPRPRPMCYPRP	-0.01
RRIRPRPPRLPRPRPRPPELPRP	0.206
RRIRIRPPRLPRPRPRPVAYPRP	-0.0713
RRIRYRPPRLPRPRPRPSPRPRP	0.062
RRIRWRPPRLPRPRPRPYAGPRP	0.0399
RRIRTRPPRLPRPRPRPSRWPRP	0.0135
RRIRWRPPRLPRPRPRPWPYPRP	-0.0146
RRIRMRPPRLPRPRPRPMNTPRP	0.206
RRIRIRPPRLPRPRPRPENEPRP	-0.428
RRIRFRPPRLPRPRPRPEQLPRP	0.178
RRIRMRPPRLPRPRPRPHQWPRP	0.121
RRIRWRPPRLPRPRPRPKMFPRP	-0.0838
RRIRARPPRLPRPRPRPLYCPRP	0.765
RRIRFRPPRLPRPRPRPGQMPRP	0.172
RRIRVRPPRLPRPRPRPTCNPRP	-0.233
RRIRQRPPRLPRPRPRPILEPRP	-0.536
RRIRSRPPRLPRPRPRPYKMPRP	-0.425
RRIRYRPPRLPRPRPRPLHNPRP	-0.507

Sequence	shrunken log2 fold change
RRIRSRPPRLPRPRPRPSEMPRP	-0.114
RRIRTRPPRLPRPRPRPGQRPRP	0.118
RRIRSRPPRLPRPRPRPFAYPRP	-0.348
RRIRQRPPRLPRPRPRPTWFPRP	0.104
RRIRQRPPRLPRPRPRPVRKPRP	-0.0285
RRIRERPPRLPRPRPRPRQQPRP	0.357
RRIRPRPPRLPRPRPRPAVFPRP	0.373
RRIRKRPPRLPRPRPRPECCPRP	0.327
RRIRVRPPRLPRPRPRPEPEPRP	0.515
RRIRNRPPRLPRPRPRPTMVPRP	-0.0433
RRIRCRPPRLPRPRPRPHWEPRP	-0.132
RRIRRRPPRLPRPRPRPRRTPRP	0.46
RRIRQRPPRLPRPRPRPCVCPRP	-0.0231
RRIRERPPRLPRPRPRPLIRPRP	-0.0588
RRIRERPPRLPRPRPRPSIVPRP	-0.443
RRIRWRPPRLPRPRPRPKKAPRP	0.149
RRIRSRPPRLPRPRPRPDYWPRP	0.0977
RRIRVRPPRLPRPRPRPRDSPRP	-0.188
RRIRDRPPRLPRPRPRPRMHPRP	-0.268
RRIRWRPPRLPRPRPRPQTEPRP	0.0468
RRIRPRPPRLPRPRPRPSDYPRP	-0.691
RRIRRRPPRLPRPRPRPTSKPRP	0.162
RRIRCRPPRLPRPRPRPMEDPRP	-0.0146
RRIRNRPPRLPRPRPRPCIAPRP	-0.878
RRIRYRPPRLPRPRPRPNDLPRP	0.018

Sequence	shrunken log2 fold change
RRIRVRPPRLPRPRPRPCKFPRP	0.01
RRIRKRPPRLPRPRPRPVDCPRP	-0.248
RRIRLRPPRLPRPRPRPEHRPRP	0.283
RRIRARPPRLPRPRPRPKSVPRP	0.0188
RRIRFRPPRLPRPRPRPHNDPRP	-0.81
RRIRRRPPRLPRPRPRPSVVPRP	0.15
RRIRGRPPRLPRPRPRPKRVPRP	0.198
RRIRIRPPRLPRPRPRPAEPPRP	-0.21
RRIRFRPPRLPRPRPRPYTQPRP	-0.152
RRIRGRPPRLPRPRPRPHPHPRP	0.399
RRIRCRPPRLPRPRPRPTPCPRP	0.281
RRIRTRPPRLPRPRPRPPLMPRP	-0.0314
RRIRQRPPRLPRPRPRPPLDPRP	0.685
RRIRQRPPRLPRPRPRPWFYPRP	-0.373
RRIRQRPPRLPRPRPRPMHPPRP	0.203
RRIRSRPPRLPRPRPRPLSRPRP	0.0301
RRIRSRPPRLPRPRPRPFTWPRP	-0.24
RRIRMRPPRLPRPRPRPVAPPRP	0.945
RRIRNRPPRLPRPRPRPEMPPRP	-0.0738
RRIRMRPPRLPRPRPRPHSEPRP	0.134
RRIRKRPPRLPRPRPRPRCWPRP	0.931
RRIRSRPPRLPRPRPRPGQCPRP	0.0202
RRIRWRPPRLPRPRPRPEPYPRP	0.0876
RRIRWRPPRLPRPRPRPDQSPRP	0.0237
RRIRPRPPRLPRPRPRPPPAPRP	2.01

Sequence	shrunken log2 fold change
RRIRARPPRLPRPRPRPAEEPRP	0.697
RRIRNRPPRLPRPRPRPMHYPRP	-0.13
RRIRLRPPRLPRPRPRPFQTPRP	-0.0347
RRIRWRPPRLPRPRPRPRNTPRP	-0.0542
RRIRMRPPRLPRPRPRPGTQPRP	0.407
RRIRFRPPRLPRPRPRPMKCPRP	-0.695
RRIRGRPPRLPRPRPRPGKYPRP	-0.265
RRIRWRPPRLPRPRPRPQACPRP	0.145
RRIRKRPPRLPRPRPRPQKEPRP	-0.00503
RRIRDRPPRLPRPRPRPVEEPRP	0.525
RRIRRRPPRLPRPRPRPITNPRP	-0.19
RRIRCRPPRLPRPRPRPAEQPRP	0.252
RRIRPRPPRLPRPRPRPTCEPRP	0.252
RRIRTRPPRLPRPRPRPWTWPRP	-0.0696
RRIRTRPPRLPRPRPRPCMAPRP	-0.172
RRIRVRPPRLPRPRPRPQYIPRP	-0.655
RRIRWRPPRLPRPRPRPFNDPRP	-0.153
RRIRVRPPRLPRPRPRPCGDPRP	-0.18
RRIRFRPPRLPRPRPRPKFWPRP	0.265
RRIRERPPRLPRPRPRPDHRPRP	-0.00204
RRIRPRPPRLPRPRPRPMRRPRP	0.537
RRIRARPPRLPRPRPRPTLSPRP	0.801
RRIRPRPPRLPRPRPRPAMRPRP	0.973
RRIRRRPPRLPRPRPRPDFYPRP	0.159
RRIRVRPPRLPRPRPRPAIGPRP	0.045

Sequence	shrunken log2 fold change
RRIRGRPPRLPRPRPRPQKMPRP	0.331
RRIRARPPRLPRPRPRPTEAPRP	0.453
RRIRWRPPRLPRPRPRPIKTPRP	0.00902
RRIRTRPPRLPRPRPRPYYDPRP	-0.24
RRIRVRPPRLPRPRPRPTPGPRP	0.258
RRIRQRPPRLPRPRPRPGQIPRP	-0.226
RRIRIRPPRLPRPRPRPDEPPRP	0.115
RRIRMRPPRLPRPRPRPQHFPRP	0.00913
RRIRIRPPRLPRPRPRPYKLPRP	-1.04
RRIRMRPPRLPRPRPRPGSVPRP	0.696
RRIRYRPPRLPRPRPRPRATPRP	-0.0516
RRIRERPPRLPRPRPRPSVKPRP	-0.625
RRIRPRPPRLPRPRPRPFTLPRP	-0.379
RRIRYRPPRLPRPRPRPMLEPRP	0.0653
RRIRGRPPRLPRPRPRPGWTPRP	0.708
RRIRFRPPRLPRPRPRPNRDPRP	-0.0824
RRIRARPPRLPRPRPRPLSNPRP	0.25
RRIRWRPPRLPRPRPRPWMQPRP	-0.147
RRIRNRPPRLPRPRPRPHWLPRP	-0.101
RRIRQRPPRLPRPRPRPMMTPRP	0.0172
RRIRCRPPRLPRPRPRPPCKPRP	-0.189
RRIRRRPPRLPRPRPRPVEDPRP	0.355
RRIRCRPPRLPRPRPRPWTAPRP	-0.212
RRIRDRPPRLPRPRPRPSHDPRP	-0.339
RRIRARPPRLPRPRPRPNYCPRP	-0.223

Reference: the supplement of paper PMC9112550, “Optimization of the antimicrobial peptide Bac7 by deep mutational scanning” (BMC Biology, 2022)
